Laboratory results reported in patent CN114075280A (DONGGUAN PENGZHI BIOTECHNOLOGY CO LTD, dated 2022).

Target: NGAL抗原 (中性粒细胞明胶酶相关载脂蛋白, Neutrophil gelatinase-associated lipocalin) (UniProt P80188 21-198)
Assay: BLI, antibody captured on AMC sensor, NGAL in solution

NGAL抗原 (中性粒细胞明胶酶相关载脂蛋白, Neutrophil gelatinase-associated lipocalin), sequence (P80188 21-198 limits assumed): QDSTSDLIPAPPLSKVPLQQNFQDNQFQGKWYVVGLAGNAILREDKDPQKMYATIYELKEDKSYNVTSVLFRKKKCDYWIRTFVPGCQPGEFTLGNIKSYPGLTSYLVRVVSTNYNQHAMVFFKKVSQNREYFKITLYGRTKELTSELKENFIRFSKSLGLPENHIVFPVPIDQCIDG

Kd: 14.8 nM | koff: 0.000313 s⁻¹ | kon: 21200 M⁻¹ s⁻¹
B1: 实施例1的抗NGAL单克隆抗体(WT) (antibody, V domains shown)
VH: QIQLKESGPGLVQPSETLSLTCTVSGASVTSYSISWVRQPSGKGPEWMGRMYYNGDTLYNSVIKSRLSISRDTSKNQVFLKMNSLQTDDTGTYYCARDPILPPYFDYWGQGVMVTVSS
VL: DVQMTQSPSYLAASPGESVSISCKFSKSLSNYVAWYQQKPGEAYKLLTHSASTVQSGIPSRISGSGSGTDFTLTIRSLEPEEFGLYYCQQHYENPYTFGAGTKLELKR
